Measurements as given in patent publication US20200277382A1 (TUFTS MEDICAL CENTER, published 2020).

Target: T1, integrin α5 (obligate heterodimer α5β1) (human, UniProt P08648 42-1049; P05556 21-798)
T1 construct: whole, on cells; on the cells α5 stands as α5β1; also called alpha 5; ITGA5
Test: flow cytometry on a panel of cell lines with variable integrin α5 and alpha-V expression
Experimental: Flow Cytometry: Cells with variable membrane integrin α5 and alpha-V expression were incubated with monoclonal α5 or alpha-V antibodies (Millipore MAB1956Z and MABT207), the bispecific antibody construct ITGA5B1xAV, or isotype control, for 1 hour at room temperature followed by 1 hour of incubation with a secondary-conjugated antibody, before being analyzed by flow cytometry.
Statistics: The mean fluorescent intensities (MFI) for the α5, alpha-V, and bispecific ITGA5B1xAV stained cell populations for each cell line were calculated from the flow cytometry data. Then a correlation coefficient between the sum of α5 and alpha-V MFIs and the bispecific ITGA5B1xAV was calculated.
The sum of integrin α5 and integrin alpha-V binding (MFI) was highly correlated with bispecific binding (correlation.9187; FIG. 3B).

- binding result: binds
B1: ITGA5B1xAV bispecific, tetravalent antibody construct (bispecific antibody, human IgG2, kappa)
heavy: QVQLQQSGGELAKPGASVKVSCKASGYTFSSFWMHWVRQAPGQGLEWIGYINPRSGYTEYNEIFRDKATMTTDTSTSTAYMELSSLRSEDTAVYYCASFLGRGAMDYWGQGTTVTVSSASTKGPSVFPLAPCSRSTSESTAALGCLVKDYFPEPVTVSWNSGALTSGVHTFPAVLQSSGLYSLSSVVTVPSSNFGTQTYTCNVDHKPSNTKVDKTVERKCCVECPPCPAPPVAGPSVFLFPPKPKDTLMISRTPEVTCVVVDVSHEDPEVQFNWYVDGVEVHNAKTKPREEQFNSTFRVVSVLTVVHQDWLNGKEYKCKVSNKGLPAPIEKTISKTKGQPREPQVYTLPPSREEMTKNQVSLTCLVKGFYPSDIAVEWESNGQPENNYKTTPPMLDSDGSFFLYSKLTVDKSRWQQGNVFSCSVMHEALHNHYTQKSLSLSPGKGGGGSGGGGSQVQLKESGPGLVAPSQSLSITCTISGFSLTDYGVHWVRQPPGKGLEWLVVIWSDGSSTYNSALKSRMTIRKDNSKSQVFLIMNSLQTDDSAMYYCARHGTYYGMTTTGDALDYWGQGTSVTVSSGGGGSGGGGSGGGGSQIVLTQSPAIMSASLGERVTMTCTASSSVSSNYLHWYQQKPGSAPNLWIYSTSNLASGVPARFSGSGSGTSYSLTISSMEAEDAATYYCHQYLRSPPTFGGGTKLEIK
light: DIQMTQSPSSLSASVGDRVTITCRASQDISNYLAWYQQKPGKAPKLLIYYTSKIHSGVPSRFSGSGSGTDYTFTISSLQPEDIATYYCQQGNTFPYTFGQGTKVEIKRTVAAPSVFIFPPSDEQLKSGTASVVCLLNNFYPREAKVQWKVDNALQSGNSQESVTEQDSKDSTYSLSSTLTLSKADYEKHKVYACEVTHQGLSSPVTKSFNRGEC
notes: also called ITGa5β1xaV; bispecific ITGA5V
